Data reported in PMC3285607, “A P-loop Mutation in Gα Subunits Prevents Transition to the Active State: Implications for G-protein Signaling in Fungal Pathogenesis” (PLoS Pathogens, 2012).

Target: T1, GαoA, wild type, full-length, hexahistidine-tagged (UniProt P09471 1-354)
T1 construct: also called wild type GαoA
Test: SPR; Biacore 3000; GST-RGS12 RGS domain captured on anti-GST antibody on a CM5 chip; Gαo injected in the GDP·AlF4- state; equilibrium binding isotherm
Settings: both partners purified

T1 sequence (P09471 whole entry): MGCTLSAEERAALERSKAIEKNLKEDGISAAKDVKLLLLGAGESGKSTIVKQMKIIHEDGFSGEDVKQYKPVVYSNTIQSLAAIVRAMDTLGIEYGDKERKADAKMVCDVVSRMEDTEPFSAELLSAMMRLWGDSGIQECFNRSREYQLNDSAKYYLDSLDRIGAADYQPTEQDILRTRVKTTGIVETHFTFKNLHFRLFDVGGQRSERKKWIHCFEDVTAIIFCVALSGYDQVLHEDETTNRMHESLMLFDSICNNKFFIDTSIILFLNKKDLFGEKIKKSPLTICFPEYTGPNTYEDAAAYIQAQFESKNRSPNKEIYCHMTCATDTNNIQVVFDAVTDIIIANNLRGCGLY

B1: GST fusion of the RGS12 RGS domain (aa 664–885) (domain or fragment, UniProt O14924 664-885, looked up)
chain: DLESATVSDGELTGADLKDCVSNNSLSSNASLPSVQSCRRLRERRVASWAVSFERLLQDPVGVRYFSDFLRKEFSEENILFWQACEYFNHVPAHDKKELSYRAREIFSKFLCSKATTPVNIDSQAQLADDVLRAPHPDMFKEQQLQIFNLMKFDSYTRFLKSPLYQECILAEVEGRALPDSQQVPSSPASKHSLGSDHSSVSTPKKLSGKSKSGRSLNEELG
notes: also called GST-RGS12
Kd: 1.27 µM
